# Results reported in the DeepSol protein solubility set.
# Assay: soluble on expression in E. coli; label from the status in PepcDB or PDB records
row,Sequence,soluble on expression in E. coli
1,PRTRECDYCGTDIEPGTGTMFVHKDGATTHFCSSKCENNADLGREARNLEWTDTARGEAGEAEDEA,soluble
2,MGSDKIHHHHHHMDNNNSYLWPVTYDEVSHELTKWKFYKHFTKISGSVYLKNDLIDDPVLVTQALIKRCPQGVLRGYAALNRRGYQLFDDPWMPIISISGEPRTRKTTNVGKIIRRETPENLRRSGEFTLVSDSQALLDVFSLHGLDSFEHQVALIDHLIRQCPDLKDEIKKVPELRKHAEFTDEFAESPPESRLRVRLHMQGYRNFMPQVRVELEGRRFYLDLADPVWGVALEYNGGWHYTAEQRSKDAFRKNALKNAGWDVFEVTSKTLQSQQAWDYFFQQVRVAIQRKYADRKRRLPMQTVS,not soluble
3,MPQNQSDRLKPKGSGDGPLGTALGRGAGVASDLWRRIRTRALSAIGPEAEAQLYEVHKEWLGDLSGKKVLEIGGGSPLSPWLADTARTYHAVSADPAELEALKVRLGEGRTARLIEADPMSGAFRETGYDVIYLHSVLHRMADRGPFLDRLLKKLAIEGRVVTTDPADGGALTRLVRTIDRPFRAESLPDHPVTEELKAELAERFYLINCVAPFRLGKAALVLGALHPELGRRVSERLIAADLKDRAAFNRLNASLQVSFLLGAPD,not soluble
4,MIKQRTLKQSIKVTGVGLHSGEKVTLTLRPAMPNTGVVYYRTDLNPAVAFPADPNSVRDTMLCTALINEQGVRISTVEHLNAALAGLGIDNIIIEVDAPEIPIMDGSASPFIYLLLDAGIEEQNAAKKFIRIKQYVRVEDGDKWAEFKPYNGFRLDFTIDFDHPAIGKDVRNYEMNFSAQAFVHQISRARTFGFMKDIEYLQSQGLVLGGSLDNAIVLDDYRILNEDGLRFKDELVRHKMLDAIGDLYMAGYNIIGDFKAYKSGHGLNNKLLRAVLANQEAWEFVTFEDKAQVPQGYVAPVQVLILEHHHHHH,soluble
5,MGSDKIHHHHHHMAIVRTVLGDITPDQAGSTLTHEHIRYAYPGCELDHRCVWDFDFVAEDVGKQFEEMREGCGIKTVVELTPPEIGRHPELFAQIARRSGMNIVATTGFFPEANAMGIPFHWRRQRKEDVVNMLIRDLTEGMIYDGQKTPYRAGILKAATGSLTAKTRTPVNEKGRRIGNVETHVISAIAAAQREVGCAINTHTQPLDYAVCNPGIELLDELEEGGADPTKVIIGHAFVHPNIDQLKAICERGASVQVDHIGIPWQNDSRAQLDELIAVAMCQLADLGHLDKLVVSYDKFFSHARGPVTEEEPEQLNELVPNDYIMTEFAPRLERKGFGARELHQVMVENPKRLLAF,not soluble
6,MGSDKIHHHHHHMHISLGPLLYCWQKQQVTDFYQQVAASQIPLVYLGEAVCSRRREFKWGDYLELAQMLKQAGKEVVISTLALIEAPSEYTELKRQVDNGEFMVEANDMAAVYLANEHKLPFVCGASINNYNRASLDILQRFGMQRFVMPVELSKAWLSQVIQQKPSFEVEVLGHGYLPLAHSARCFTARHKQLTKDHCETVCREYSKGLVAQTQEQQPLLRLNGIQTQSASCLDLRSEITTMAKMGVDVFRVSPSSLDCIATANALVDAINTPENAQHFAISSDANLERTQCNGYWFGEAGLAVHANP,not soluble
7,LPHLMKYMGSKRELLDFIISSINDLDIESNWFCDLFSGTSVVGCSLKDEYNVQINDIQIYTSIFANTYLPNINKLINSTELEKIKDRVLFYVDEFYRKYPDLIFDYNSIDNYEKLTKLEIQQQNLIYSNFEIGFHLFVKYYSGTYWSYTQCVWIDSIRAVAEEYKGKSDYYIILSSLIYAMSYTSQSTGHFAQFRDVTESNMHDIMLYRIRDIWTYFEKKFLEILNMVDVEATNRYTITTLDYLDCLRLIERNTIVYADPPYSSVHYSRFYHAIETLIRYDYPNVKYKGRYREDRHQSPFGKKTEVKNAFGKLFKGVKNKNSHLILSYSDNGMITQDEIMEIGNSIMGNQYKGDIQVKEYIHSKMGRSDIHSMGVNELIISYKRQ,not soluble
8,AHHHHHHGSLIVVRPGRKKNELEAFIIENPPEKLSQRRNLKADRVVRLIMRDNRLFKALEGSQYLNPKEVERALRNSRIVLVNANEWEEYFKKRLMNKRVEKADICRLCLLNGKITVLTEGNRIRYRDEYICESCAEEELKRELRFRFNSIGMLEQAKKLLERFRDLDKVISIFDPSFDPTKHPEITKWDELKAKHIRVEKMHIDELNIPEEFKKVLKAEGINELLPVQVLAIKNGLLEGENLLVVSATASGKTLIGELAGIPKALKGKKMLFLVPLVALANQKYEDFKRRYSKLGLKVAIRVGMSRIKTKEEPIVLDTGTDAHIIVGTYEGIDYLLRAGKKIGNVGTVVIDEIHMLDDEERGARLDGLIARLRKLYSNAQFIGLSATVGNPQELARKLGMKLVLYDERPVDLERHLIIARNESEKWRYIAKLCKAEAMRKSEKGFKGQTIVFTFSRRRCHELASFLTGQGLKAKAYHSGLPYVQRKLTEMEFQAQMIDVVVTTAALGAGVDFPASQVIFESLAMGNKWITVREFHQMLGRAGRPQYHEKGKVYIIVEPGKKYSAQMEGTEDEVALKLLTSPIEPVIVEWSDEFEEDNVLAHACVFNRLKVIEEVQSLCLGANQSAKNVLEKLMEKGLVKIYGDKVEATPYGRAVSMSFLLPREAEFIRDNLESTDPIEIAIKLLPFENVYLPGSLQREIESAVRGKISSNIFSSSFASVLEELDKIIPEISPNAAERLFLIYQDFFNCPEQDCTEFAMERIGRKIIDLRREGYEPSKISEHFRKVYALILYPGDVFTWLDGIVRKLEAIERIARVFNKRRVVEDTIRVRREIEEGKILKGERR,not soluble
9,MIINIRKFREHDLKRVMEIEKESFDKNYPEFLMMHIYTSFPDGFLVAETEDGKIVGYIIALMEWGNGHVVSIAVDSAYQNYGIGNALLSATENFLFNECHAKHCVLEVRFDNKKAREFYYKRNYVDRKVLYNYYDDGADAILMIKRRFDLSGNYPIFVNMW,not soluble
10,MGSDKIHHHHHHMPKVLHVADVHLGARPYGLEERRDDIFRSFEFVVETALKDRPDAVLIAGDLFDKPKLPLRDVKQAVELVRALTDAGIPVLAAHGEHDTPSVRDETLLSLMEASLDGFKAPLYRSGMRPGDFVVDLGSLKVAVVPFFKVPLEERRRLTLRFLREFDQISRTSSGTLVLLAHMSLDAEMQFDAVASPSDLPSGAKYAALGHLHAPRIRLDAPTPYAYPGVLDPLKVEEINTPGSPLYVDLSGDAPIIEKVKVPRRPQYRIEVDIGDGGSIYNAVNRGLRRVLANVRASREDWLKPLIHVIIKSDKPISKARVIAEARKAAGGADVLLKIHWKIVAGGEHAGTSPGLQGEGPLDLAKIAAEYYKIPLNAASTILHDLAEAAAEKDELRVREILETLATTVSQDTWKRILYMR,not soluble
11,MGSDKIHHHHHHMANVTPDLVKALFVGFGKNFKDGLAKAPSQYTEIATVVKSTTASNTYAWLGQMPGLTEWIGDRTLTAIQSHGYSIVNKKWANGVEIQRTDIEDDNVGVYSPLIEELGRAAGEKADELVFGALTAGFKTACYDGQYFFDTDHPVGANVDGTNQKSVSNITDDSTGVTEANAWYLLDCSRSLKPIIYQERKAPTPAQITDANDEKVFMKDVFTYGVDSRSNVGYGFWQMAHAVKGKLTAENLWKAIEAMRAVRGDGDKRLAIRPTHIVVPPSLAQAATKLLERELRAEDGVAVDNEFKRMNLKLIVGDYL,not soluble
12,MMTDKLNLNVLDAAFYSLEQTVVQISDRNWFDMQPSIVQDTLIAGAIQKFEFVYELSLKMMKRQLQQDAINTDDIGAYGFKDILREALRFGLIGDMSKWVAYRDMRNITSHTYDQEKAMAVYAQIDDFLIESSFLLEQLRQRNQYD,soluble
13,MGSDKIHHHHHHMSRILITCAITGSIHTPSMSPYLPVTADEITQQAVDAADAGAAILHLHARDPETGRPSAEIGHFMGFLPRIKQSCEAVLNLSTGGSAVMTLDQRLAAPKQAAPEMCSLNMGTMNFALYPAADRISDWKHDWEEPFLRGSDDLVFKNTPRDMALILGEMGTKRGARFEFEVYDVGHLYMLRHFVDRGLVQGPLFIQFVFGVLGGIGPDPENLMHMKTVADKLFGQDYLFSVLAAGRHQIPLVTMAAAMGGHVRVGLEDSLMISRGVLARSNAEQVRKIRRIVEDLGREVASPGEARAMLGLKGADRTAF,not soluble
14,MTAPRDVRVRTLSLLLPEPGRKGRLAAISAAVCHRRDMATYRYLDKDRNVLEEQDFGTVQDAEEHRLSVLGAEIIEEVEDSGTPES,not soluble
15,MPRPSLRRGEETSGARSLHEIAPPAEKAVRKPLNLLPFRKDTPMTKDSYFHKSRAGVAGAPLFVLLHGTGGDENQFFDFGARLLPQATILSPVGDVSEHGAARFFRRTGEGVYDMVDLERATGKMADFIKANREHYQAGPVIGLGFSNGANILANVLIEQPELFDAAVLMHPLIPFEPKISPAKPTRRVLITAGERDPICPVQLTKALEESLKAQGGTVETVWHPGGHEIRSGEIDAVRGFLAAYGG,soluble
16,GMTKIRKIAVFIEETRIEAGREISPPTRKAVAVAVIENPFAGRYVEDLTELMDTGAELGALLGERCVQALGIRPEQAESYGKSAMVGENGELEHAAAILHPKLGAPLRKAVEKGAALVPSSKKMGSPGQVLDVPLGHKDAAYVRSHFDGIEVRLNDAPRANEIMVAVAVTDSGRPLPRVGGLTHDAAEGKDGLR,soluble
17,MGSDKIHHHHHHMMDKEIENGSVNVDLLELEKFNQLAHRWWDPNSEFKPLHEINPLRLGYIDRHARLAGKDVLDVGCGGGILSESMAESGAQVTGIDLGDKALKVAKLHLLESGNKVNYRKSSVEALAAEQPHHYDVVTCMEMLEHVPDPVSTVRACAELAKPGGWVFFSTINRNPKSYLFAVIGAEYVLNLLPRGTHDYAKFIKPSELGRMAREAGLDVQEVIGMSYNPITKVYSLGQDTDVNYIMAFRA,not soluble
18,MSWSDIINNNLIGSGNVSKAAILGFDGAVWAKSDNFNISVEEAVAAGKAFTSLDALLGTGLRLEGQKFLVLNADNDRIIGKQGGSGFFIYKTIQAVIISIYEKGLQPEMCSKTTGALADYFRSIKY,not soluble
19,MQNNVVDSIIIDVLSASTHEKPLCKVITEERVLKLLDLALGVFKAQKPMVEVNAPIKVCGDIHGQFPDLLRLFHRGGWPPTANYLFLGDYVDRGRFSIETIVLLLAYKVKFPCNFFLLRGNHECEFVNKTYGFYEECQKRYQSVRMYAAFQDVFNWLPLTGLIATKILCMHGGLSPLMTKEFTLDTLRKIERPTEGKEGLVADLLWADPISGLSGFMNNQRGAGCGFGRDSVLNLCSEFQLDLVCRAHQVVQDGYEFFAGRKLVTIFSAPHYCGQFDNCAAFMSCDEKLQCSFEILRPTTGRLEIREKPLLKDETN,not soluble
20,QRKISNIGAQSSMKLEDIKTPSASLTTTLAGRLAGVVAVQRTGEPGKDAADIWIRGIATPNTATPLILVDGVERAFNDIDPEDIESLTTLKDASATAVYGVRGANGVIIIKTKPGK,not soluble
